Laboratory results as given in patent US20220348631A1.
Values joined by “and” are separate entries in the source; they are usually repeats but may differ in a detail not shown here. Identical values can stand only once. Each block holds one substance with its values, some of them ahead of it.

Experiments:
Assay in all cases: cell-based or functional assay
[1] = biological target: carcinoembryonic antigen (CEA) on LoVo, LS174T or H508 tumor cells (UniProt P06731)
[2] = biological target: Human folate receptor alpha (FolR) on cells (human) (UniProt P15328)
Chain of UniProt P15328 (P15328 25-234): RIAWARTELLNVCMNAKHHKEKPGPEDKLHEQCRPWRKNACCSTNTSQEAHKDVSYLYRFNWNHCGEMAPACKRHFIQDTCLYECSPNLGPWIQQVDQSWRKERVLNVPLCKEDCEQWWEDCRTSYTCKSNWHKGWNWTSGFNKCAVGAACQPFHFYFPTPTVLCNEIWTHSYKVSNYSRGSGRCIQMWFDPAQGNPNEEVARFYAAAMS

[3] = biological target: PD-L1 on LoVo / LoVo.OKT3.GFP cells (UniProt Q9NZQ7)
Chain of UniProt Q9NZQ7 (Q9NZQ7 19-290 limits assumed): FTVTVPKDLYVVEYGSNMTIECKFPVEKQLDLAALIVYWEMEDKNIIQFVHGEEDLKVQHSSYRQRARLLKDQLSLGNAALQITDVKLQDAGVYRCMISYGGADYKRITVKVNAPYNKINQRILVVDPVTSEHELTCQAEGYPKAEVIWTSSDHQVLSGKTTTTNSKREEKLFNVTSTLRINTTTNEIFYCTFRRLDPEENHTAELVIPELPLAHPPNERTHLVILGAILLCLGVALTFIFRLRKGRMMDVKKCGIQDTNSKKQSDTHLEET

Chain of UniProt P06731 (P06731 35-702 limits assumed): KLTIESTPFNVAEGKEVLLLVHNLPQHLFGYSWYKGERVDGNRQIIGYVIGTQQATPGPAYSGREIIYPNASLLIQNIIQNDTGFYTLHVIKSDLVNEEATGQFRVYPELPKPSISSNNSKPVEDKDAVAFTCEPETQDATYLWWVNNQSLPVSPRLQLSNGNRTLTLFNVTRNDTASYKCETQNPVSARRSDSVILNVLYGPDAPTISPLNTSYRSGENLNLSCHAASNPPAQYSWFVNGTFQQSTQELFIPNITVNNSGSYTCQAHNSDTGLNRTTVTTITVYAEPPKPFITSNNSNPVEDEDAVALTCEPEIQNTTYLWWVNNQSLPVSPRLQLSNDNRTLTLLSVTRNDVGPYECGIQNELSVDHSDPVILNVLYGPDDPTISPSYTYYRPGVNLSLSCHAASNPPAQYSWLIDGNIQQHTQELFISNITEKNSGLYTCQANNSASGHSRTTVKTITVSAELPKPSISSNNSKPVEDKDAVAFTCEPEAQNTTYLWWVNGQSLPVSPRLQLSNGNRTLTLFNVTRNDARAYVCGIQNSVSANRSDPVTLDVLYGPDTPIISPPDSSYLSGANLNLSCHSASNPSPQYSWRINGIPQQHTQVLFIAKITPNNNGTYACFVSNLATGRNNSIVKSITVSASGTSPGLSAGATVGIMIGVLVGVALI

Substance: MOV19.CD28.CD40 CoStAR (OSM_MOV19_spCD28_CD28_CD40) (receptor)
CD137 expression [2]: 50%
CD137 expression in CoStAR+ TIL, coculture with FolR high expressing tumor digest [2]: 50%
CD137 expression in CoStAR+ TIL, coculture with FolR low expressing tumor digest [2]: > 20%
IL-2 production [2]: 5%
TNFα production [2]: 15%
enhancement of Bcl-XL induction in the presence of OvCAR-OKT3 [2]: 35%
enhancement of IL-2 induction in the presence of OvCAR-OKT3 [2]: 30 to 50%
enhancement of TNFα production in the presence of OvCAR-OKT3 [2]: 25% and 50%
mean fold expansion of T cells, 21 days with OvCAR-OKT3 [2]: 1300 fold

Substance: CTP188 PD1_PD1_sCD28TM_CD28_CD40 (dimeric) (receptor)
IL-2 secretion (ELISA), 24 h coculture with LoVo-OKT3 [3]: < 1000 pg/mL

Substance: CTP200 OSM_MFE23_spCD28_CD28_CD40_CD40_CD40 (receptor)
IFNγ (ELISA) after 24 h with LoVo-OKT3 [1]: > 30 ng/mL

Substance: MOV19.CD28 CoStAR (from UniProt P10747 19-220) (receptor)
enhancement of Bcl-XL induction in the presence of OvCAR-OKT3 [2]: 20%
enhancement of IL-2 induction in the presence of OvCAR-OKT3 [2]: 20%
enhancement of TNFα production in the presence of OvCAR-OKT3 [2]: 20 to 30%
mean fold expansion of T cells, 21 days with OvCAR-OKT3 [2]: 187 fold

Substance: CTP196 OSM_MFE23_spCD28_CD28_CD40 (PVQET-AVAEA) (receptor)
IFNγ (ELISA) after 24 h with LoVo-OKT3 [1]: 10 ng/mL

Other lines, results leading:

IFNγ (ELISA) after 24 h with LoVo-OKT3 [1]: > 30 ng/mL
IL-2 (ELISA) after 24 h with LoVo-OKT3 [1]: 4000 pg/mL
Substance: CTP198 OSM_MFE23_spCD28_CD28_CD40 (P227A) (receptor)

IL-2 (ELISA), coculture with LoVo-OKT3 [1]: 2500 pg/mL
Substance: CTP202 OSM_MFE23_spCD28_CD28 (YMNM-FMNM)_CD40 (receptor)

IFNγ (ELISA), coculture with LoVo-OKT3 [1]: 1000 pg/mL
IL-2 (ELISA), coculture with LoVo-OKT3 [1]: 2500 pg/mL
Substance: CTP201 OSM_MFE23_spCD28_CD28 (PYAPP-AYAA)_CD40 (receptor)

IFNγ (ELISA) after 24 h with LoVo-OKT3 [1]: > 30 ng/mL
Substance: CTP197 OSM_MFE23_spCD28_CD28_CD40 (PQEINF-AQAINF) (receptor)

IFNγ (ELISA) after 24 h with LoVo-OKT3 [1]: > 30 ng/mL
IFNγ (ELISA), coculture with LoVo-OKT3 [1]: 1000 pg/mL
IL-2 (ELISA) after 24 h with LoVo-OKT3 [1]: 4000 pg/mL
IL-2 (ELISA), coculture with LoVo-OKT3 [1]: 4000 pg/mL
IL-2 secretion (ELISA), 24 h coculture with LoVo-OKT3 [1]: 4000 pg/mL
IL-2 secretion (ELISA), coculture with LoVo-OKT3 [1]: 29 ng/mL
T-cell expansion over 18 days with LoVo-OKT3 and IL-2 [1]: > 60 fold
fold expansion after two rounds of stimulation with LoVo-OKT3 [1]: 10 fold
fold expansion on serial stimulation with LoVo-OKT3 [1]: 12 fold
fold expansion with LoVo-OKT3, after restimulation (day 14-15) [1]: > 10 fold
fold expansion with LoVo-OKT3, first time point (day 6-8) [1]: 4 fold
Substance: CTP194 OSM_MFE23_spCD28_CD28_CD40 (receptor)

IL-2 secretion (ELISA), 24 h coculture with LoVo-OKT3 [3]: < 1000 pg/mL
Substance: CTP189 PD1_PD1_sCD28TM_CD28_CD40 (monomeric) (receptor)

IL-2 secretion (ELISA), coculture with LoVo-OKT3 [1]: 4.6 ng/mL
Substance: MFE23 CD28(IEV) truncated CoStAR (receptor)

IFNγ (ELISA) after 24 h with LoVo-OKT3 [1]: > 30 ng/mL
IL-2 (ELISA) after 24 h with LoVo-OKT3 [1]: 4000 pg/mL
Substance: CTP195 OSM_MFE23_spCD28_CD28_CD40 (SVQE-AVQA) (receptor)
